Source: patent US12104181B2, “Compositions and methods for treating viral infections targeting TRIM7” (THE BOARD OF REGENTS OF THE UNIVERSITY OF TEXAS SYSTEM, priority 2021, dated 2024)

B1: TRIM11: human RING type E3 ligase expressed from lentiviral vector (protein, UniProt Q96F44 1-468, looked up)
E3 ubiquitin-protein ligase …: MAAPDLSTNLQEEATCAICLDYFTDPVMTDCGHNFCRECIRRCWGQPEGPYACPECRELSPQRNLRPNRPLAKMAEMARRLHPPSPVPQGVCPAHREPLAAFCGDELRLLCAACERSGEHWAHRVRPLQDAAEDLKAKLEKSLEHLRKQMQDALLFQAQADETCVLWQKMVESQRQNVLGEFERLRRLLAEEEQQLLQRLEEEELEVLPRLREGAAHLGQQSAHLAELIAELEGRCQLPALGLLQDIKDALRRVQDVKLQPPEVVPMELRTVCRVPGLVETLRRFRGDVTLDPDTANPELILSEDRRSVQRGDLRQALPDSPERFDPGPCVLGQERFTSGRHYWEVEVGDRTSWALGVCRENVNRKEKGELSAGNGFWILVFLGSYYNSSERALAPLRDPPRRVGIFLDYEAGHLSFYSATDGSLLFIFPEIPFSGTLRPLFSPLSSSPTPMTICRPKGGSGDTLAPQ
B2: RNF141: human RING type E3 ligase expressed from lentiviral vector (protein, UniProt Q8WVD5 2-230, looked up)
RING finger protein 141: GQQISDQTQLVINKLPEKVAKHVTLVRESGSLTYEEFLGRVAELNDVTAKVASGQEKHLLFEVQPGSDSSAFWKVVVRVVCTKINKSSGIVEASRIMNLYQFIQLYKDITSQAAGVLAQSSTSEEPDENSSSVTSCQASLWMGRVKQLTDEEECCICMDGRADLILPCAHSFCQKCIDKWSDRHRNCPICRLQMTGANESWVVSDAPTEDDMANYILNMADEAGQPHRP
B3: TRIM6: human RING type E3 ligase expressed from lentiviral vector (protein, UniProt Q9C030 1-488, looked up)
Tripartite motif-containing …: MTSPVLVDIREEVTCPICLELLTEPLSIDCGHSFCQACITPNGRESVIGQEGERSCPVCQTSYQPGNLRPNRHLANIVRRLREVVLGPGKQLKAVLCADHGEKLQLFCQEDGKVICWLCERSQEHRGHHTFLVEEVAQEYQEKFQESLKKLKNEEQEAEKLTAFIREKKTSWKNQMEPERCRIQTEFNQLRNILDRVEQRELKKLEQEEKKGLRIIEEAENDLVHQTQSLRELISDLERRCQGSTMELLQDVSDVTERSEFWTLRKPEALPTKLRSMFRAPDLKRMLRVCRELTDVQSYWVDVTLNPHTANLNLVLAKNRRQVRFVGAKVSGPSCLEKHYDCSVLGSQHFSSGKHYWEVDVAKKTAWILGVCSNSLGPTFSFNHFAQNHSAYSRYQPQSGYWVIGLQHNHEYRAYEDSSPSLLLSMTVPPRRVGVFLDYEAGTVSFYNVTNHGFPIYTFSKYYFPTTLCPYFNPCNCVIPMTLRRPSS
B4: TRIM1: human RING type E3 ligase expressed from lentiviral vector (protein, UniProt Q9UJV3 1-735, looked up)
Probable E3 ubiquitin-protein …: MGESPASVVLNASGGLFSLKMETLESELTCPICLELFEDPLLLPCAHSLCFSCAHRILVSSCSSGESIEPITAFQCPTCRYVISLNHRGLDGLKRNVTLQNIIDRFQKASVSGPNSPSESRRERTYRPTTAMSSERIACQFCEQDPPRDAVKTCITCEVSYCDRCLRATHPNKKPFTSHRLVEPVPDTHLRGITCLDHENEKVNMYCVSDDQLICALCKLVGRHRDHQVASLNDRFEKLKQTLEMNLTNLVKRNSELENQMAKLIQICQQVEVNTAMHEAKLMEECDELVEIIQQRKQMIAVKIKETKVMKLRKLAQQVANCRQCLERSTVLINQAEHILKENDQARFLQSAKNIAERVAMATASSQVLIPDINFNDAFENFALDFSREKKLLEGLDYLTAPNPPSIREELCTASHDTITVHWISDDEFSISSYELQYTIFTGQANFISKSWCSWGLWPEIRKCKEAVSCSRLAGAPRGLYNSVDSWMIVPNIKQNHYTVHGLQSGTRYIFIVKAINQAGSRNSEPTRLKTNSQPFKLDPKMTHKKLKISNDGLQMEKDESSLKKSHTPERFSGTGCYGAAGNIFIDSGCHYWEVVMGSSTWYAIGIAYKSAPKNEWIGKNASSWVFSRCNSNFVVRHNNKEMLVDVPPHLKRLGVLLDYDNNMLSFYDPANSLHLHTFDVTFILPVCPTFTIWNKSLMILSGLPAPDFIDYPERQECNCRPQESPYVSGMKTCH
B5: TRIM8: human RING type E3 ligase expressed from lentiviral vector (protein, UniProt Q9BZR9 1-551, looked up)
E3 ubiquitin-protein ligase …: MAENWKNCFEEELICPICLHVFVEPVQLPCKHNFCRGCIGEAWAKDSGLVRCPECNQAYNQKPGLEKNLKLTNIVEKFNALHVEKPPAALHCVFCRRGPPLPAQKVCLRCEAPCCQSHVQTHLQQPSTARGHLLVEADDVRAWSCPQHNAYRLYHCEAEQVAVCQYCCYYSGAHQGHSVCDVEIRRNEIRKMLMKQQDRLEEREQDIEDQLYKLESDKRLVEEKVNQLKEEVRLQYEKLHQLLDEDLRQTVEVLDKAQAKFCSENAAQALHLGERMQEAKKLLGSLQLLFDKTEDVSFMKNTKSVKILMDRTQTCTSSSLSPTKIGHLNSKLFLNEVAKKEKQLRKMLEGPFSTPVPFLQSVPLYPCGVSSSGAEKRKHSTAFPEASFLETSSGPVGGQYGAAGTASGEGQSGQPLGPCSSTQHLVALPGGAQPVHSSPVFPPSQYPNGSAAQQPMLPQYGGRKILVCSVDNCYCSSVANHGGHQPYPRSGHFPWTVPSQEYSHPLPPTPSVPQSLPSLAVRDWLDASQQPGHQDFYRVYGQPSTKHYVTS
B6: TRIM2: human RING type E3 ligase expressed from lentiviral vector (protein, UniProt Q9C040 1-744, looked up)
Tripartite motif-containing …: MASEGTNIPSPVVRQIDKQFLICSICLERYKNPKVLPCLHTFCERCLQNYIPAHSLTLSCPVCRQTSILPEKGVAALQNNFFITNLMDVLQRTPGSNAEESSILETVTAVAAGKPLSCPNHDGNVMEFYCQSCETAMCRECTEGEHAEHPTVPLKDVVEQHKASLQVQLDAVNKRLPEIDSALQFISEIIHQLTNQKASIVDDIHSTFDELQKTLNVRKSVLLMELEVNYGLKHKVLQSQLDTLLQGQESIKSCSNFTAQALNHGTETEVLLVKKQMSEKLNELADQDFPLHPRENDQLDFIVETEGLKKSIHNLGTILTTNAVASETVATGEGLRQTIIGQPMSVTITTKDKDGELCKTGNAYLTAELSTPDGSVADGEILDNKNGTYEFLYTVQKEGDFTLSLRLYDQHIRGSPFKLKVIRSADVSPTTEGVKRRVKSPGSGHVKQKAVKRPASMYSTGKRKENPIEDDLIFRVGTKGRNKGEFTNLQGVAASTNGKILIADSNNQCVQIFSNDGQFKSRFGIRGRSPGQLQRPTGVAVHPSGDIIIADYDNKWVSIFSSDGKFKTKIGSGKLMGPKGVSVDRNGHIIVVDNKACCVFIFQPNGKIVTRFGSRGNGDRQFAGPHFAAVNSNNEIIITDFHNHSVKVFNQEGEFMLKFGSNGEGNGQFNAPTGVAVDSNGNIIVADWGNSRIQVFDGSGSFLSYINTSADPLYGPQGLALTSDGHVVVADSGNHCFKVYRYLQ
B7: TRIM4: human RING type E3 ligase expressed from lentiviral vector (protein, UniProt Q9C037 1-500, looked up)
E3 ubiquitin-protein ligase …: MEAEDIQEELTCPICLDYFQDPVSIECGHNFCRGCLHRNWAPGGGPFPCPECRHPSAPAALRPNWALARLTEKTQRRRLGPVPPGLCGRHWEPLRLFCEDDQRPVCLVCRESQEHQTHAMAPIDEAFESYRTGNFDIHVDEWKRRLIRLLLYHFKQEEKLLKSQRNLVAKMKKVMHLQDVEVKNATQWKDKIKSQRMRISTEFSKLHNFLVEEEDLFLQRLNKEEEETKKKLNENTLKLNQTIASLKKLILEVGEKSQAPTLELLQNPKEVLTRSEIQDVNYSLEAVKVKTVCQIPLMKEMLKRFQVAVNLAEDTAHPKLVFSQEGRYVKNTASASSWPVFSSAWNYFAGWRNPQKTAFVERFQHLPCVLGKNVFTSGKHYWEVESRDSLEVAVGVCREDVMGITDRSKMSPDVGIWAIYWSAAGYWPLIGFPGTPTQQEPALHRVGVYLDRGTGNVSFYSAVDGVHLHTFSCSSVSRLRPFFWLSPLASLVIPPVTDRK
B8: TRIM10: human RING type E3 ligase expressed from lentiviral vector (protein, UniProt Q9UDY6 1-481, looked up)
Tripartite motif-containing …: MASAASVTSLADEVNCPICQGTLREPVTIDCGHNFCRACLTRYCEIPGPDLEESPTCPLCKEPFRPGSFRPNWQLANVVENIERLQLVSTLGLGEEDVCQEHGEKIYFFCEDDEMQLCVVCREAGEHATHTMRFLEDAAAPYREQIHKCLKCLRKEREEIQEIQSRENKRMQVLLTQVSTKRQQVISEFAHLRKFLEEQQSILLAQLESQDGDILRQRDEFDLLVAGEICRFSALIEELEEKNERPARELLTDIRSTLIRCETRKCRKPVAVSPELGQRIRDFPQQALPLQREMKMFLEKLCFELDYEPAHISLDPQTSHPKLLLSEDHQRAQFSYKWQNSPDNPQRFDRATCVLAHTGITGGRHTWVVSIDLAHGGSCTVGVVSEDVQRKGELRLRPEEGVWAVRLAWGFVSALGSFPTRLTLKEQPRQVRVSLDYEVGWVTFTNAVTREPIYTFTASFTRKVIPFFGLWGRGSSFSLSS
modifications: lentiviral expression
notes: human RING type E3 ligase expressed from lentiviral vector
B9: TRIM9: human RING type E3 ligase expressed from lentiviral vector (protein, UniProt Q9C026 1-710, looked up)
E3 ubiquitin-protein ligase …: MEEMEEELKCPVCGSFYREPIILPCSHNLCQACARNILVQTPESESPQSHRAAGSGVSDYDYLDLDKMSLYSEADSGYGSYGGFASAPTTPCQKSPNGVRVFPPAMPPPATHLSPALAPVPRNSCITCPQCHRSLILDDRGLRGFPKNRVLEGVIDRYQQSKAAALKCQLCEKAPKEATVMCEQCDVFYCDPCRLRCHPPRGPLAKHRLVPPAQGRVSRRLSPRKVSTCTDHELENHSMYCVQCKMPVCYQCLEEGKHSSHEVKALGAMWKLHKSQLSQALNGLSDRAKEAKEFLVQLRNMVQQIQENSVEFEACLVAQCDALIDALNRRKAQLLARVNKEHEHKLKVVRDQISHCTVKLRQTTGLMEYCLEVIKENDPSGFLQISDALIRRVHLTEDQWGKGTLTPRMTTDFDLSLDNSPLLQSIHQLDFVQVKASSPVPATPILQLEECCTHNNSATLSWKQPPLSTVPADGYILELDDGNGGQFREVYVGKETMCTVDGLHFNSTYNARVKAFNKTGVSPYSKTLVLQTSEVAWFAFDPGSAHSDIILSNDNLTVTCSSYDDRVVLGKTGFSKGIHYWELTVDRYDNHPDPAFGVARMDVMKDVMLGKDDKAWAMYVDNNRSWFMHNNSHTNRTEGGITKGATIGVLLDLNRKNLTFFINDEQQGPIAFDNVEGLFFPAVSLNRNVQVTLHTGLPVPDFYSSRASIA

tested on: coxsackievirus B3 (CVB3-GFP); format: cell-based; conditions: HeLa cells, GFP-positive cells within RFP-positive gate, replicate R1

Molecule | Percent Infected R1
B1 | 58.2%
B2 | 87.2%
B3 | 67.4%
B4 | 82.1%
B5 | 70.1%
B6 | 62.1%
B7 | 67.8%
B8 | 58.7%
B9 | 81.3%

same assay, conditions: HeLa cells, replicate R1

Molecule | Z score R1
B1 | −0.387
B2 | −0.02
B3 | −0.27
B4 | −0.083
B5 | −0.235
B6 | −0.337
B7 | −0.265
B8 | −0.38
B9 | −0.093
